What was measured:
Assay in all cases: pull-down binding Z-score (relative to library population); higher = stronger binding
[1] = test system: G-clamp-N3 (biotin conjugate); settings: RNA library: Library-1 (pre-miRNA loops + repeats)
Summary of the method: (§1)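 The RNA library, end-labelled with Cy5 or Cy3, was heat-folded in phosphate/NaCl/KCl buffer, and 1 μg was incubated at 25 °C for 60 min with streptavidin beads carrying 100 pmol of biotin-conjugated small molecule. Hot SDS released the bound RNA, which was then hybridised to a DNA barcode microarray for 20 h at 55.5 °C. For scoring binding, signal from beads alone was subtracted, replicate barcoded probes were averaged after discarding the highest and lowest, and each value was turned into a Z-score from the library mean and standard deviation.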

[2] = test system: TO-3-N3 (biotin conjugate); settings: RNA library: Library-2
Summary of the method: as §1

[3] = test system: TO-3-N3-2 (biotin conjugate); settings: RNA library: Library-2
Summary of the method: as §1

TO-N3 (biotin conjugate) = settings: RNA library: Library-2
Summary of the method: as §1

[4] = test system: TO-N3-2 (biotin conjugate); settings: RNA library: Library-2
Summary of the method: as §1

Sequence | pull-down binding Z-score [1] | pull-down binding Z-score [2] | pull-down binding Z-score [3] | pull-down binding Z-score (TO-N3 (biotin conjugate)) | pull-down binding Z-score [4]
AUGUCCCUUUAGUUCAAAGU [hsa-mir-2052] | -2.06 | -0.246 | -0.0713 | -0.283 | -0.324
GAUGCUGUAUAUCUGAAAGGUAC [hsa-mir-101-2] | -0.649 | -0.357 | -0.144 | -0.126 | 0.383
UGGCAAAGGGGUAGCUAAACAAUCUAUGUCUUUGCCA [hsa-mir-3119-1] | 1.24 | -0.367 | 0.00332 | -0.525 | -0.555
GGCUGCUGGAUUGAAUUAGCUGCA [hsa-mir-1286] | -0.74 | 0.023 | 0.133 | 0.506 | 1.15
GGGCCUGGGUUUCUGAACAC [hsa-mir-196a-1] | 0.486 | 0.328 | 0.334 | 0.611 | 0.762
CUUCGGUAUUCAUCAAAAAUACCAAAG [hsa-mir-4735] | -0.293 | -0.683 | -0.63 | -1.08 | -1.52
UUCUGCUGAAGACUGGUCUCUUCAUGUGUGAG [hsa-mir-6133] | -0.872 | -0.389 | -0.0941 | -0.371 | 0.00769
CCCAGCCUUCCAGAGUUGGUGCCAGG [hsa-mir-4476] | -0.593 | 0.892 | 0.0973 | 1.14 | 1.11
CUCAAGUCCUCUAUUUCUUUGAA [hsa-mir-7978] | -1.16 | -0.712 | -0.54 | -0.484 | 0.0517
CUCGGCCAUCCUCCGUCUGCCCAG [hsa-mir-935] | -1.08 | -0.0566 | 0.13 | 0.473 | 1.16
UGCCUCUCGGGGU [hsa-mir-6073] | -0.532 | 0.000863 | 0.15 | 0.118 | 0.214
UCCUUUUCUCUACCUUGUAGAGAAGCA [hsa-mir-3609] | -0.207 | 0.0918 | -0.379 | 0.281 | -0.258
GGUUGUUAGAUAGACAACU [hsa-mir-4510] | 0.718 | 0.632 | 0.19 | 0.328 | -0.496
GUUAGUUGUGGACACAUACUAAC [hsa-mir-3912] | -0.0574 | -0.764 | -0.735 | -1.19 | -1.25
UUUGCUAUUUUUUUUUAAUGGCAAA [hsa-mir-548ac] | 0.725 | -0.607 | -0.0611 | -1.01 | -1.46
UUCCUUGUCUGUAGCCAUGUCUAUGGGCUCUUGAG [hsa-mir-571] | -0.205 | 0.494 | -0.0353 | 0.461 | -0.131
CUGGCUGGUCCAGCCCCUCAGAAG [hsa-mir-6796] | -0.944 | 1.16 | 0.4 | 1.39 | 1.47
GCACUCUGUAGUUUGGGUACACAGUGC [hsa-mir-5011] | 1.49 | -0.741 | -0.259 | -0.77 | -0.478
CUGUUGUUUCAGCUCGACAACAACAG [hsa-mir-3937] | 0.361 | -0.212 | -0.335 | -0.333 | -0.505
UGUACAGGUGAGCGGAUGUUCUGCACA [hsa-mir-3120] | 0.0407 | 1.53 | 0.681 | 1.67 | 1.57

Sequence | pull-down binding Z-score [1] | pull-down binding Z-score [2] | pull-down binding Z-score [3] | pull-down binding Z-score (TO-N3 (biotin conjugate)) | pull-down binding Z-score [4]
UUCGCGGUUGGGCU [hsa-mir-3143] | 0.897 | 1.21 | 0.258 | 1.33 | 0.693
GGGACAUUGCGGAGAGGGUCUCACAUUGUCCC [hsa-mir-4646] | 0.248 | 0.894 | 0.999 | 0.925 | 0.488
CUGAGCUGGGUACUGCCUGUUCAG [hsa-mir-589] | 0.263 | 0.697 | 0.311 | 0.518 | 0.0632
GGAGGCCCCGCUCUGCUGCCGACCCUGUGGAGCGGAGGGUGAAGCCUCC [hsa-mir-3180-4] | 1.15 | 0.3 | 0.118 | 0.553 | 1.24
GUAGAUUGAAAGCCCUAAUUUUAC [hsa-mir-3941] | -0.805 | -0.486 | 0.306 | -0.0427 | 0.452
CGGUCCCAUAUUGAACUCG [hsa-mir-4444-1_4444-2] | -1.03 | -0.626 | -0.418 | -0.4 | -0.109
AGGGCAGCUCCCAUGACUGCCUGACCGC [hsa-mir-6880] | -0.549 | 0.15 | 0.266 | 0.663 | 1.4
GGCAUCUAGCACAGGCGGUAGAUGCU [hsa-mir-4486] | 0.983 | -0.546 | -0.34 | -0.481 | -0.132
CUCAUGUAAACUAAAACAUGAU [hsa-mir-508] | -1.91 | 0.0647 | -0.244 | -0.229 | -0.891
UGCUGAUGUCAUCAGUCAUAACUUCUGCG [hsa-mir-6854] | -0.983 | -0.119 | 0.131 | -0.0155 | 0.366
AAGGCCCUUGGGCACCCCAGGCCUU [hsa-mir-5700] | -1.26 | 0.259 | -0.081 | 0.181 | 0.656
GUGUCUGGAGACGCCAGGCAGC [hsa-mir-4323] | -0.529 | -0.154 | -0.352 | 0.127 | 1.13
AUUGAGAGUUCCUUCUCCUGCUCCUGAU [hsa-mir-6766] | -0.32 | -0.548 | -0.369 | -0.462 | -0.0576
GAAAAAUCCCUGUUAACUUUC [hsa-mir-6833] | -0.686 | -0.143 | 0.174 | -0.225 | 0.133
CACUCUCCCUAAUGGGGCUGAAGACAGCUCAGGGGCAGGGUG [hsa-mir-4472-1] | 1.88 | -0.357 | -0.583 | -0.273 | 0.191
CUCGCUGGGAGGUGUGCUAUCGUCUUCCCUGGGAG [hsa-mir-3689d-2] | -0.351 | 0.157 | -0.246 | 0.338 | 0.541
ACUAAUUUUUCCACUAGUUAGU [hsa-mir-4424] | -0.61 | 0.228 | -0.199 | -0.137 | -1.16
GCACCUGUUUGUGAC [hsa-mir-4718] | -1.21 | -0.491 | -0.276 | -0.457 | -0.201
UUGAGAACCAG [hsa-mir-4328] | -0.606 | 1.74 | 0.215 | 1.79 | 1.04
CCCAUAUGAACAUACAAUGCUAUGGA [hsa-mir-1-2] | -0.76 | -0.62 | -0.224 | -0.569 | -0.206

Sequence | pull-down binding Z-score [1] | pull-down binding Z-score [2] | pull-down binding Z-score [3] | pull-down binding Z-score (TO-N3 (biotin conjugate)) | pull-down binding Z-score [4]
CAGGGAACUUUAAAACC [hsa-mir-4324] | 0.493 | 0.41 | 0.387 | 0.483 | 0.306
GUGGCUUCAACCAAGUUCAAAGUCAC [hsa-mir-3186] | -1.08 | -0.304 | -0.378 | -0.441 | -0.383
AGGUAGUGAUAUGUGCAUCUACU [hsa-mir-17] | -0.805 | 0.0812 | 0.142 | 0.31 | 0.759
CAAGAGGUGUGAGCCACACACACGCCUGGCCUCCUG [hsa-mir-5699] | 1.28 | 0.771 | 0.0475 | 0.813 | 0.687
AUAGUUUUAGGGCAGGGAUUUUGCCCACAAGGAGGUAACUAU [hsa-let-7d] | -0.917 | 0.236 | 0.589 | 0.112 | 0.203
UUCUGUGGUUUGAAAGGAA [hsa-mir-1323] | 1.07 | 0.85 | 0.281 | 0.444 | -0.252
GAUUAUUGUAAGCAGGAUCCAUUCAAUAAUC [hsa-mir-5188] | -0.228 | -0.19 | -0.383 | -0.366 | -0.703
AGUGAGUUGAUUACUUCUCACU [hsa-mir-4676] | -0.179 | -0.0959 | -0.441 | -0.26 | -0.222
CUGGGUUCGGCUGCUACCCCAAA [hsa-mir-6768] | -1.38 | 0.179 | 0.195 | 0.563 | 0.742
AAAUGAGAGUUAGCCAGGAGCUUUGCAUACUCA [hsa-mir-6801] | -1.22 | -0.384 | -0.0024 | -0.00733 | 0.66
CCAUGCAACAUUUGG [hsa-mir-1302-4] | 0.29 | -0.262 | -0.327 | -0.359 | -0.696
UGCACCAGUUCUGGCCGCUGGUGGA [hsa-mir-4683] | -0.459 | -0.16 | -0.295 | 0.104 | 0.856
CAGGAUUAGUGCUUAUGCUAAGAUGUCUUCACUG [hsa-mir-6773] | 0.887 | -0.824 | -0.269 | -0.75 | -0.301
AGAAGAACU [hsa-mir-378j] | -0.205 | -0.279 | -0.0957 | -0.272 | -0.277
CAGCUUGCUCUGCUUU [hsa-mir-4303] | 0.072 | -0.387 | 0.0132 | -0.189 | 0.0746
AGACCUUCCUUCCUUGUCU [hsa-mir-3163] | -1.91 | -0.452 | -0.206 | -0.558 | -0.35
GGUCAGGUGGUGCCCUCCUUCCAUGGGUAGAGCCAGAGAUGGUGGGUUCUGGCU [hsa-mir-6131] | 0.859 | 0.869 | 0.142 | 1.16 | 2.25
CCUUGUGAAUGUCGGGCAAUGG [hsa-mir-4701] | 1.59 | -0.0355 | 0.357 | 0.267 | 0.503
